Measurements published in patent US20250381241, “METHODS AND COMPOSITIONS TO MODULATE RIOK2” (Dana-Farber Cancer Institute, Inc., published 2025).

Molecular target: RIOK2 (rhRIOK2, full length) (Homo sapiens, UniProt Q9BVS4 SEQ:1-552)
Assay: EMSA; low-salt buffer, 4 C, protein:DNA 5:1
Conditions: tags: GST; Abcam
Procedure: Recombinant human GST-tagged RIOK2 (rhRIOK2, Abcam) was incubated with duplex DNA (Table 5) at 5:1 molar ratio in a low-salt buffer for 20-30 minutes at 4° C. and 2% agarose gel was cast and cooled to 4° C. The DNA-protein mixture was supplemented with 0.22p filtered 50% glycerol solution to facilitate loading. The gel was run for 1.5 hours at 4° C., followed by incubation in ethidium bromide solution for 30 minutes and visualized using ChemiDoc Touch Imaging system (Bio-Rad). ImageJ was used to quantify band shifts.

Sequence of RIOK2 (rhRIOK2, full length) (Q9BVS4 whole entry): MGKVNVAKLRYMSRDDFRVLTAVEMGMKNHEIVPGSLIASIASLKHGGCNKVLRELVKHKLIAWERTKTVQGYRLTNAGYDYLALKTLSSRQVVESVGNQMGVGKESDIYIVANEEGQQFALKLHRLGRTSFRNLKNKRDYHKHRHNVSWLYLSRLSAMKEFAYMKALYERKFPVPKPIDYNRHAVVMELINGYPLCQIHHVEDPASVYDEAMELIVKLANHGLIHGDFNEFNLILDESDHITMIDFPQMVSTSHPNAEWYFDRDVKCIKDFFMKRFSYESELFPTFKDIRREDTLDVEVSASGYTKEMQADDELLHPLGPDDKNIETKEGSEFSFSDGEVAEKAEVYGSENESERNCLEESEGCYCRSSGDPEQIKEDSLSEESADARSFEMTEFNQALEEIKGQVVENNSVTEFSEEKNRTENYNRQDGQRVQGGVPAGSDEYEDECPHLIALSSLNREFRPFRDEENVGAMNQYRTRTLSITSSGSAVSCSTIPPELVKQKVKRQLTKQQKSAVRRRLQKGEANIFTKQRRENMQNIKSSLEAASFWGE

Binder	binding result
GATA1-WT duplex (dsDNA) DNA 1: ACACACCTGTAGTCCCAGCTACTCAGGAGG DNA 2: CCTCCTGAGTAGCTGGGACTACAGGTGTGT	binds
GATA2-WT duplex (dsDNA) DNA 1: CTTGGGCTTTCCTCCCACCCGGGACTGGTG DNA 2: CACCAGTCCCGGGTGGGAGGAAAGCCCAAG	binds
SPI1-WT duplex (dsDNA) DNA 1: AAGGGGACTATCTCCCAGCGGCAGGCCCTT DNA 2: AAGGGCCTGCCGCTGGGAGATAGTCCCCTT	binds
RUNX3-WT duplex (dsDNA) DNA 1: CCGGGCGCCGCCCCCTGCGCCCTGAGGCCC DNA 2: GGGCCTCAGGGCGCAGGGGGCGGCGCCCGG	binds
